Test results published in patent US20190000964A1 (CREATIVE BIO PEPTIDES, published 2019).

B1: MIP-1β (ligand)
chain: APMGSDPPTACCFSYTARKLPRNFVVDYYETSSLCSQPAVVFQTKRSKQVCADPSESWVQEYVYDLELN
notes: also called MIP-β

Tests used:
[1] = target: T1, human CCR5 receptor (hCCR5) (human, UniProt P51681 1-352); experiment: inhibition of gp120/sCD4 complex binding to CCR5-expressing Cf2Th cells by competing peptide
T1 construct: whole, on cells; also called synCCR5; chemokine co-receptor CCR5

[2] = target: T1, human CCR5 receptor (hCCR5); experiment: inhibition of gp120BaL/sCD4 binding to Cf2Th/synR5 cells (FIG. 4A)
[3] = target: T1, human CCR5 receptor (hCCR5); experiment: inhibition of gp120CM235/sCD4 binding to Cf2Th/synR5 cells (FIG. 4B)
[4] = target: T1, human CCR5 receptor (hCCR5); experiment: inhibition of gp120CM235/sCD4 binding to GHOST CD4.CCR5 cells (FIG. 4C)

T1 sequence (P51681 whole entry): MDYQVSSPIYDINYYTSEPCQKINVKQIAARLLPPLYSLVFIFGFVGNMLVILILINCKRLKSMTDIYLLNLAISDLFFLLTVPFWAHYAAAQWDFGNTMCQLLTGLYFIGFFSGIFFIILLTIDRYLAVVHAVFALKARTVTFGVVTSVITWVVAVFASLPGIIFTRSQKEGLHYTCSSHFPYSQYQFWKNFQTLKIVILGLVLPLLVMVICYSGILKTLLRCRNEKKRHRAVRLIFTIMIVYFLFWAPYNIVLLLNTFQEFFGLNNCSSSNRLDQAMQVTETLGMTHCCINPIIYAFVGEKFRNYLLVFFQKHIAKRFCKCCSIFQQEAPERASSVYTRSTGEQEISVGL

Row | Binder | EC50 [1] [nM] | IC50 [2] [nM] | IC50 [3] [nM] | IC50 [4] [nM]
1 | INNYT | 0.06 | – | – | –
2 | IDNYT | 1 | – | – | –
3 | B1 | – | 1.5 | 1.8 | 0.43
